Each binder was assayed against T1, activated soluble HLA-A*0201 (assay: fluorescence polarization competition (PolyTest)).
T1 construct: MHC class I molecule that receives peptide in the fluorescence polarization assay (PolyTest); also called sHLA
Experimental: FP-based peptide binding assay (PolyTest). […] For all preparations, 1×BGG/PBS was used as buffer. […] FP values given as milli-polarization (mP) are calculated by the equation:polarization (mP)=1000(S−GP)/(S+GP), where S and P are background-subtracted intensities of the fluorescence measured in the parallel (S) and perpendicular (P) directions, respectively, and G (grating) is the instrument and assay dependent correction factor.
Competition experiments were analyzed by plotting FPₘₐₓ (maximal polarization) values as a function of the logarithms of competitor concentrations. […] Observed inhibitory concentrations (IC₅₀) were determined by nonlinear curve fitting to a dose-response model with variable slope using the specific software Prism (Graph Pad Software Inc.; San Diego, Calif.).

| Binder | binding result |
| --- | --- |
| TMTRVLQGV (also called TMT(40)) [TMTRVLQGV, human chorionic gonadotropin-beta peptide 40-48] | binds |
| VLQGVLPAL (also called VLQ(44)) [VLQGVLPAL, human chorionic gonadotropin-beta peptide 44-52] | binds |
| GVLPALPQV (also called GVL(47)) [GVLPALPQV, human chorionic gonadotropin-beta peptide 47-55] | binds |

Reference: patent publication US20090075304A1 (published 2009)
